Series [1] addresses AspT L60C mutant (three endogenous Cys replaced with alanine, then leucine 60 replaced with Cys) (Tetragenococcus halophilus) (UniProt Q8L3K8). In words: cross-linking; spontaneous inter-molecular disulphide; purified protein (0.5 ug) in SDS sample buffer without 2-mercaptoethanol (non-reducing) or with 5% (reducing), 37°C 30 min; SDS-PAGE (Coomassie) and western blot with a His-tag antibody.

Series [2] deals with the molecule itself. Description: SEC-MALS; purified AspT in DDM (2.4 mg/ml, dialysed); Superdex 200 Increase 10/300 GL; 20 mM HEPES-NaOH pH 7.0, 500 mM NaCl, 200 mM Asp-KOH, 0.01% DDM, 20% glycerol; 0.8 ml/min; MALS, RI and UV detectors. (In general: SEC sorts molecules by how far they enter the pores of the column.)

Take “AspT L60C mutant (three endogenous Cys replaced with alanine, then leucine 60 replaced with Cys) (from UniProt Q8L3K8 1-543) (natural protein)”: the stoichiometry N in series [1] amounted to 2.

B1: aspartate:alanine antiporter (AspT) of Tetragenococcus halophilus, wild type, histidine-tagged (natural protein, UniProt Q8L3K8 1-543, looked up)
chain: MNAIGNFLVGTPVFTIFICLALGYLLGKLKIGSFTLGATVGVLIVALLIGQLGVFPRDTLLGDIFFDFFMFAIGYRVGPSFISSMKKFGAKIVYATLIFLVSAFIVAYACFKMFHIGPGIAAGIIAGGLTQSAVIGSSLETISKLPISDHLKTLYSNQIPIVYTLTYVFGTIGVLIFLRDIMPKLMHIDLKKQAVKTAKELDMIPVPVIVASTHFYTINDGSSLIGQTLGTVNTKFAKGLVAAGLNDSADMASVINAGDVLAISGGIDEIGRAVQEFNLLEVTGKTKAYVSKQVVLKKNFSADVLKNAQDKGVLVATLAGDVMDPAQFSTLKPAESVTLVGQKDAVSEVQSQLGRLRAAENIINYSWFALGIALSAALGIVGTKVSGVPIALGGGTASLIVGLVQSIYRDKHAHMDTIPDSLLEFFQSIGLNLFIATVGLSAAKTFISAIQSMGISVLLIGAVISILPHIITFVICYYLMKMEPISIIGAQTGADTLSAALNDVSERVGSDASPFFAAAVAPAYAIGNIFLTLMGPIFIVLLS
notes: aspartate:alanine antiporter AspT, Tetragenococcus halophilus, 543 amino-acid residues (57.2 kDa); expressed from the asp operon in pTrc99A (pTrcAspD/T-His); also called AspT WT; WT; source: Ni Sepharose Excel and SEC for the comparison with L60C; not shown: His6, internal (in loop 5), kept
Take B1: the “stoichiometry N” value in series [2] worked out at 2.

One may read the stoichiometry N as a count of units in the complex or per binding partner.

The values are drawn from paper PMC9527358, “Oligomeric state of the aspartate:alanine transporter from Tetragenococcus halophilus” (Journal of Biochemistry, 2022).
